Data reported in paper PMC12157500.

What was measured:
[1] = target: 87CrGPDH705-FLAG, di-domain glycerol-3-phosphate dehydrogenase from Chlamydomonas reinhardtii with the chloroplast targeting sequence removed (Chlamydomonas reinhardtii); experiment: SEC
[2] = target: 57CrGPDH705-FLAG, di-domain glycerol-3-phosphate dehydrogenase from Chlamydomonas reinhardtii with 30 additional N-terminal amino acids (Chlamydomonas reinhardtii); experiment: SEC

Substance	stoichiometry N [1]	stoichiometry N [2]
87CrGPDH705-FLAG, di-domain glycerol-3-phosphate dehydrogenase from Chlamydomonas reinhardtii with the chloroplast targeting sequence removed (enzyme)	4	–
57CrGPDH705-FLAG, di-domain glycerol-3-phosphate dehydrogenase from Chlamydomonas reinhardtii with 30 additional N-terminal amino acids (enzyme)	–	5
